Measured values: patent publication US20260072027A1, “Peptides And Method” (Queen Mary University of London, priority 2022, published 2026)
Where no end group is shown, it is not given here.

Assays:
[1] = target: Serum IgG autoantibodies of subjects with type 1 diabetes (human); assay: competitive ELISA, T1D serum pre-incubated with peptide, plate coated with oxidised insulin (FIG. 2B)
[2] = target: Serum IgG autoantibodies of subjects with type 1 diabetes (human); assay: competitive ELISA, T1D serum pre-incubated with peptide, plate coated with oxidised insulin (Example 3)

% reduction of serum binding to oxidised whole insulin [1]: 35 to 75% | % reduction of serum binding to oxidised whole insulin [2]: 35 to 70%
B1: oxPTM-INSP-6, peptide 6 oxidised in house (oxidant not specified at the place) (peptide)
peptide: ERGFFYTPKT
modifications: not fully specified (N-terminus); also: oxidised in house (CuCl2, H2O2, NaOCl), modified residues not defined
